Test results reported in patent publication US5677280A, “Peptides and compounds that bind to the IL-5 receptor” (Glaxo Group Limited, priority 1995, dated 1997).

T1: human IL-5 receptor (Homo sapiens, UniProt Q01344)
T1 construct: host or cells: subclone of HL60 induced towards eosinophil differentiation with sodium butyrate (endogenous receptor)
T1 sequence (Q01344 21-420): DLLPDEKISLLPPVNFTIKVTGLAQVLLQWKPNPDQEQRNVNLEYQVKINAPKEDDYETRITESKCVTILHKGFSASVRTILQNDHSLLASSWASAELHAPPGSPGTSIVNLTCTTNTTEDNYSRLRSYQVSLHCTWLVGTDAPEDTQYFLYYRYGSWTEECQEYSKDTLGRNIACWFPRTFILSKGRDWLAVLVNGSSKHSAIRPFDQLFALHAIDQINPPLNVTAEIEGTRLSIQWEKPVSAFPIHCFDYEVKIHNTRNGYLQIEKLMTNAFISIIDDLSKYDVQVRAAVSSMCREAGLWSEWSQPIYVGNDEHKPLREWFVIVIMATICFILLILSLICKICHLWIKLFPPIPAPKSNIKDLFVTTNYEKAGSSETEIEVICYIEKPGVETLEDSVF
T1 sequence (P32927 17-897 partner): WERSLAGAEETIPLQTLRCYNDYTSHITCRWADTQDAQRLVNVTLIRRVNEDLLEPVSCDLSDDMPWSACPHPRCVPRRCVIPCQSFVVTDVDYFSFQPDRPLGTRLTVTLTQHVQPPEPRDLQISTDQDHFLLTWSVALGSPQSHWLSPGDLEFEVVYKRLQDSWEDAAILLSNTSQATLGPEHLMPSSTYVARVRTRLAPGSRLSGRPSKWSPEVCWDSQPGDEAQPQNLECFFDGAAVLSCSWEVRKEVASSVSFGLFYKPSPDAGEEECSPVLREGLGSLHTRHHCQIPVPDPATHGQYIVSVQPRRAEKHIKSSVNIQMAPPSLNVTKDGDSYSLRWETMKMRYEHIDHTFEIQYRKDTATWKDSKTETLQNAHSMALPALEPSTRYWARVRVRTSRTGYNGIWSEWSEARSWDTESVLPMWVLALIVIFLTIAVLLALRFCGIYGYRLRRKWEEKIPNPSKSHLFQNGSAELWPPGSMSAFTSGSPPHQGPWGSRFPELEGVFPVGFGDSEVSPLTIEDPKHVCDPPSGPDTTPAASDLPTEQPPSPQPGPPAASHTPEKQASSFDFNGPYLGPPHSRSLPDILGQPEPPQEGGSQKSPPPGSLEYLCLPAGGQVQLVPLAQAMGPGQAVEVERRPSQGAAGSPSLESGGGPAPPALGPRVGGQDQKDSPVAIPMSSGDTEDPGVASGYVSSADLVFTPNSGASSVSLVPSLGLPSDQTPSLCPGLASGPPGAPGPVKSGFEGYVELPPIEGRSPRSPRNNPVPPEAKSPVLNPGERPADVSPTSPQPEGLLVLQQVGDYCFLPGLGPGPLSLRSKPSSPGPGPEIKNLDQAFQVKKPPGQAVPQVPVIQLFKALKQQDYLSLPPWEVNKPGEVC


Experiments:
[1] = molecular target: T1, human IL-5 receptor; conditions: HL60 subclone, eosinophilic differentiation initiated with sodium butyrate; read-out: Kd of IL-5 binding sites; cited from earlier work
[2] = molecular target: extracellular domain (ECD) of the IL-5 receptor α chain, soluble (human) (UniProt Q01344); assay: competition with [125I] IL-5 on immobilised soluble IL-5Rα; grade ++ = IC50 of 500 nm or less

Molecule | Kd [1] [nM] | IC50 [2] [nM]
IL-5: lymphokine secreted by T cells and mast cells having biological activities on B cells and eosinophils | 0.03 | –
DGFVCVEWARCPNCR [peptide … (SEQ ID NO:9)] | – | < 500
DGYVCVEWARCPMCT [peptide … (SEQ ID NO:8)] | – | < 500
DGYVCVEWARCPTCK [peptide … (SEQ ID NO:7)] | – | < 500
